According to patent US20220135701A1 (Genentech, published 2022):
Like-named read-outs stand apart in the source and are kept apart here. Values belong to the binder of their own block, whether it stands above or below them.

What was measured:
mouse MerTK [1] = target: T1, mouse MerTK (mouse, UniProt Q60805 23-496); assay: SPR BIAcore T200, Ab captured, 37C
T1 construct: also called MuMER
T1 sequence (looked up): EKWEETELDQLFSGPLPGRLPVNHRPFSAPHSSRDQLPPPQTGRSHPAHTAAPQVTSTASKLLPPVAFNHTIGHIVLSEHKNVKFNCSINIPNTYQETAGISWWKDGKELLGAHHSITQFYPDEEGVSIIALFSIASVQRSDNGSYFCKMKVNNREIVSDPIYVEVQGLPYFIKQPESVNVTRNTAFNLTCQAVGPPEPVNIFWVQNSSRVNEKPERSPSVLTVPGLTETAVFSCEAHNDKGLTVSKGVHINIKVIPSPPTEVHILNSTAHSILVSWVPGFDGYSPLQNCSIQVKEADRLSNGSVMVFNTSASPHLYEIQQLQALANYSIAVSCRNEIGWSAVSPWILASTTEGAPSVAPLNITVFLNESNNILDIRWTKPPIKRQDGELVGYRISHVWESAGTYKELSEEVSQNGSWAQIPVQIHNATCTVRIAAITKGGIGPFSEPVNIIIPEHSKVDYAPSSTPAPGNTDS
Description: (§1) All binding affinity determinations were obtained using Surface Plasmon Resonance (SPR) measurements from a BIAcore™-T200 instrument. Briefly, each rabbit or humanized antibody was captured to achieve approximately 100 RU (Response Units). Then, 3-fold serial dilutions of MerTK from various species (0.4 nM to 100 nM) diluted in HBS-EP buffer (0.01M HEPES pH 7.4, 0.15M NaCl, 3 mM EDTA and 0.05% v/v surfactant P20) was injected into the BIAcore™-T200 instrument at 25° C. or 37° C. with a flow rate of 30 μl/min. Association rates (kₒₙ) and dissociation rates (koff) were calculated using a simple one-to-one Langmuir binding model (BIAcore T200 evaluation software version 2.0). The equilibrium dissociation constant (KD) was calculated as the ratio koff/kₒₙ.

rat MerTK [2] = target: T2, rat MerTK (rat, UniProt P57097 23-496, limits assumed); assay: SPR BIAcore T200, Ab captured, 37C
T2 construct: Soluble analyte in SPR
T2 sequence (looked up): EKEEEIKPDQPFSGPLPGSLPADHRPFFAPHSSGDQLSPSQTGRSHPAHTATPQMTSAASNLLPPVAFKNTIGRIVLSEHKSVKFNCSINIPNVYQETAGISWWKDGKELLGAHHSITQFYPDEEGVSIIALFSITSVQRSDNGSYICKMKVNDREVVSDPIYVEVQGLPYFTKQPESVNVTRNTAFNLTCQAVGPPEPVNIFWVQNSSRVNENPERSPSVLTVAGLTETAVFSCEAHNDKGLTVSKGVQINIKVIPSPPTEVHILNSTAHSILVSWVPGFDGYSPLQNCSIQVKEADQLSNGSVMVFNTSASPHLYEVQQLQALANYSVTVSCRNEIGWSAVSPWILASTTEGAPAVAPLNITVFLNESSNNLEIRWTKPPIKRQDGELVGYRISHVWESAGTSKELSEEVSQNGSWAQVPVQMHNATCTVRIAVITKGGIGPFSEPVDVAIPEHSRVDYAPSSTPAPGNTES
Description: as §1

cynomolgus monkey MerTK [3] = target: T3, cynomolgus monkey MerTK (cynomolgus monkey, UniProt A0A2K5V1H9 32-505); assay: SPR BIAcore T200, Ab captured, 37C
T3 construct: Soluble analyte in SPR; also called Cyno MerTK
T3 sequence: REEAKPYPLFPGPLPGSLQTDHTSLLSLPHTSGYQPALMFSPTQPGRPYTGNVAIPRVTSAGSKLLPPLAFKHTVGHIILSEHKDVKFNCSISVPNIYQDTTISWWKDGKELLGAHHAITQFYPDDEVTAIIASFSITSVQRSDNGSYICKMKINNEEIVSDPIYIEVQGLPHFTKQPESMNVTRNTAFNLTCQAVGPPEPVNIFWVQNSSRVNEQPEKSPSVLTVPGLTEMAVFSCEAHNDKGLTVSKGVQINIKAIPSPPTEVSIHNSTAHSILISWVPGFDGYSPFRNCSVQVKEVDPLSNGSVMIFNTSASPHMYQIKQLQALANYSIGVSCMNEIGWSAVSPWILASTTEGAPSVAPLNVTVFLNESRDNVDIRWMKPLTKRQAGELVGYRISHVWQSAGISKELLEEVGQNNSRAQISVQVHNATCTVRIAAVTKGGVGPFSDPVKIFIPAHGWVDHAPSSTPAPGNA
Description: as §1

human MerTK [4] = target: T4, human MerTK (human, UniProt Q12866 26-499); assay: SPR BIAcore T200, Ab captured, 37C
T4 construct: also called HuMER
T4 sequence: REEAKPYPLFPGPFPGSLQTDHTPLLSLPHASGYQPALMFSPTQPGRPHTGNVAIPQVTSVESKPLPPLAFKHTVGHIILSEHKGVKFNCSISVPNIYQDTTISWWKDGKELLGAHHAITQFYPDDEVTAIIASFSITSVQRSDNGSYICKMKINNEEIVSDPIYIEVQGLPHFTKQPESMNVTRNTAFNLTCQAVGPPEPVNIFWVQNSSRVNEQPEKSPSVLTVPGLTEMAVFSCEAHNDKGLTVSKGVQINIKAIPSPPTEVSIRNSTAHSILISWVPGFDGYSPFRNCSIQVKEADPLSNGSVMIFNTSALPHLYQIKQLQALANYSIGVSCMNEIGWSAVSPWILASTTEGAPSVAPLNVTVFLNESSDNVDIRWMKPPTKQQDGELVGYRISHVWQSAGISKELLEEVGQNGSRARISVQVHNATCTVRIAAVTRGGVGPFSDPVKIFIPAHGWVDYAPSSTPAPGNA
Description: as §1

human MerTK [5] = target: T4, human MerTK; assay: SPR BIAcore T200, Ab captured, 37C; remark: listed apart in the source
Description: Each humanized mutation variant was subject to BIAcore analysis to determine the important rabbit residues for binding and stability. Binding affinity determinations were obtained using Surface Plasmon Resonance (SRP) measurements from a BIAcore™-T200 instrument. Briefly, each humanized mutation variant antibody was captured to achieve approximately 100 RU (Response Units). Then, 3-fold serial dilutions of human MerTK (0.4 nM to 100 nM) diluted in HBS-EP buffer (0.01M HEPES pH 7.4, 0.15M NaCl, 3 mM EDTA and 0.05% v/v surfactant P20) was injected into the BIAcore™-T200 instrument at 37° C. with a flow rate of 30 μl/min. Association rates (kₒₙ) and dissociation rates (koff) were calculated using a simple one-to-one Langmuir binding model (BIAcore T200 evaluation software version 2.0). The equilibrium dissociation constant (KD) was calculated as the ratio koff/kₒₙ.

mouse MerTK [6] = target: T1, mouse MerTK; assay: SPR BIAcore T200, Ab captured, 37C; remark: listed apart in the source
Description: (§2) Each rabbit and humanized antibody was subjected to a binding assay to determine its affinity to MerTK derived from various species.
as §1

rat MerTK [7] = target: T2, rat MerTK; assay: SPR BIAcore T200, Ab captured, 37C; remark: listed apart in the source
Description: as §2, §1

cynomolgus monkey MerTK [8] = target: T3, cynomolgus monkey MerTK; assay: SPR BIAcore T200, Ab captured, 37C; remark: listed apart in the source
Description: as §2, §1

human MerTK [9] = target: T4, human MerTK; assay: SPR BIAcore T200, Ab captured, 37C; remark: listed apart in the source
Description: as §2, §1

mouse MerTK [10] = target: T1, mouse MerTK; assay: SPR BIAcore T200, Ab captured, 25C
Description: as §1

cynomolgus monkey MerTK [11] = target: T3, cynomolgus monkey MerTK; assay: SPR BIAcore T200, Ab captured, 25C
Description: as §1

human MerTK [12] = target: T4, human MerTK; assay: SPR BIAcore T200, Ab captured, 25C
Description: as §1

MuMER (E23-S496) = target: T5, MuMER (E23-S496) (mouse, UniProt Q60805 23-496); assay: SPR BIAcore T200, Ab captured, 25C
T5 construct: range 23-496; also called mouse MerTK extracellular domain
T5 sequence (looked up): T1 sequence (looked up)
Description: (§3) Binding affinity determinations were obtained using Surface Plasmon Resonance (SRP) measurements from a BIAcore™-T200 instrument. Briefly, each rabbit antibody was captured to achieve approximately 100 RU (Response Units). Then, 3-fold serial dilutions of the various MerTK domains (0.4 nM to 100 nM) diluted in HBS-EP buffer (0.01M HEPES pH 7.4, 0.15M NaCl, 3 mM EDTA and 0.05% v/v surfactant P20) was injected into the BIAcore™-T200 instrument at 25° C. or 37° C. with a flow rate of 30 μl/min. Association rates (kₒₙ) and dissociation rates (koff) were calculated using a simple one-to-one Langmuir binding model (BIAcore T200 evaluation software version 2.0). The equilibrium dissociation constant (KD) was calculated as the ratio koff/kₒₙ.
(§4) Antibody epitope determination was assessed by BIAcore analysis for rabbit antibodies binding against both the human and mouse MerTK extracellular domain (HuMER R26-A499 and MuMER E23-S496), Ig1&2 domain, Ig1-only domain, and Ig2-only domain (TABLE 18). Human MerTK and its domains are shown in light gray, while mouse MerTK and its domains are shown in dark gray.

HuMER.Ig1 (G76-G195) = target: T6, HuMER.Ig1 (G76-G195) (human, UniProt Q12866 76-195); assay: SPR BIAcore T200, Ab captured, 25C
T6 construct: also called human MerTK Ig-like 1 domain
T6 sequence: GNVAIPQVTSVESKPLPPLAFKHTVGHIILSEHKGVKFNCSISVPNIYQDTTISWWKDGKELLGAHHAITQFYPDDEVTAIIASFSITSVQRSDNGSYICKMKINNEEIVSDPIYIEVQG
Description: as §3, §4

MuMER.Ig1&2 (A70-P279) = target: T7, MuMER.Ig1&2 (A70-P279) (mouse, UniProt Q60805 70-279); assay: SPR BIAcore T200, Ab captured, 25C
T7 construct: range 70-279; also called mouse MerTK Ig-like 1&2 domains
T7 sequence (looked up): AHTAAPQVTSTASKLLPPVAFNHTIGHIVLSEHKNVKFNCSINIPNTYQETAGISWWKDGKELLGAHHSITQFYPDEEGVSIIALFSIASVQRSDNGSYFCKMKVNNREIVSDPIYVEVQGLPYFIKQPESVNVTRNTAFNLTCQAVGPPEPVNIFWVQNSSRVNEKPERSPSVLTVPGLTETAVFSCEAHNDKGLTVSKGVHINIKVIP
Description: as §3, §4

HuMER (R26-A499) = target: T8, HuMER (R26-A499) (human, UniProt Q12866 26-499); assay: SPR BIAcore T200, Ab captured, 25C
T8 construct: Extracellular domain with both Ig-like and both fibronectin-like domains; also called human MerTK extracellular domain
T8 sequence: T4 sequence
Description: as §3, §4

Kd (mouse MerTK [1]): 1.5 nM | Kd (rat MerTK [2]): 3.6 nM | Kd (cynomolgus monkey MerTK [3]): 3.1 nM | Kd (human MerTK [4]): 7.1 nM | Kd (human MerTK [5]): 7.3 nM | Kd (mouse MerTK [6]): 1.5 nM | Kd (rat MerTK [7]): 4.1 nM | Kd (cynomolgus monkey MerTK [8]): 3 nM | Kd (human MerTK [9]): 6.7 nM
B1: h10F7.v1 (antibody, V domains shown)
VH: EQQLVESGGGLVQPGGSLRLSCAVSGFSLSGYAMSWVRQAPGKGLEYIGVISSSGSSYYPSWAKGRFTISKDSSKNTVYLQMGSLRAEDMAVYFCARVQFYVGYAVYGYGIIDRLDLWGQGTLVTVSS
VL: DAVLTQSPDSLAVSLGERATINCQSSKSVYNNNWLSWYQQKPGQPPKLLIYRASTLESGVPDRFSGSGSGTDFTLTISSLQAEDVAVYFCAGGYSSSSSANAFGGGTKVEIK
notes: also called h10F7.V1 (Parent); 10F7 Humanized mAb V1

Kd (mouse MerTK [1]): 1.5 nM | Kd (rat MerTK [2]): 3.7 nM | Kd (cynomolgus monkey MerTK [3]): 4.5 nM | Kd (human MerTK [4]): 10.6 nM | Kd (human MerTK [5]): 12.2 nM | Kd (mouse MerTK [6]): 1.4 nM | Kd (rat MerTK [7]): 3.8 nM | Kd (cynomolgus monkey MerTK [8]): 4.8 nM | Kd (human MerTK [9]): 11.2 nM
B2: h9E3.FN.v1 (antibody, V domains shown)
VH: EQQLVESGGGLIQPGGSLRLSCAVSGFSLSSNAMSWVRQAPGKGLEWIGIISSSGSTYSASWAKGRFTISKDSSKNTMYLQMNSLRAEDTAVYFCARVGFFVGYGAYDYGIIHRLDLWGQGTLVTVSS
VL: DAQLTQSPSTLSASVGDRVTITCQSSKSIYNNNWLSWYQQKPGKPPKLLIYDASDLASGVPSRFSGSGSGTEFTLTISSLQPDDFATYYCAGGYSGDSDYAFGGGTKVEIK
notes: also called h9E3.FN.V1 (Parent); 9E3.FN Humanized mAb V1

Kd (mouse MerTK [10]): 4.1 nM | Kd (cynomolgus monkey MerTK [11]): 14.3 nM | Kd (human MerTK [12]): 31.3 nM | Kd (MuMER (E23-S496)): 4.1 nM | Kd (HuMER.Ig1 (G76-G195)): 39.8 nM | Kd (MuMER.Ig1&2 (A70-P279)): 3.4 nM | Kd (HuMER (R26-A499)): 31.3 nM
B3: Rbt11G11 (antibody, V domains shown)
VH: QELVESGGGLVQAGESLKLSCKASGIDFSSYGISWVRQAPGKGLEWIAYIYPGFGITNYAHSVKGRFTISSDNAQNTVFLQMPSLTASDTATYFCARDLDYTGGVVGYAYVTYYFTLWGPGTLVTVSS
VL: DPVLTQTPSSVEAAVGGTVTIKCQASESISSRLAWYQQKPGQPPKLLIYSASTLASGVSSRFKGSGSGTEFTLTISDLECADAATYYCQTYYGGSTTGWYVFGGGTEVVVK
notes: Recombinant rabbit monoclonal antibody, Expi293, protein A purified
